Measured values published in IntAct's records for PubMed 22562154.

B1: Importin subunit beta-5 (Saccharomyces cerevisiae), P53067 (parent)
chain: MDINELIIGAQSADKHTREVAETQLLQWCDSDASQVFKALANVALQHEASLESRQFALLSLRKLITMYWSPGFESYRSTSNVEIDVKDFIREVLLKLCLNDNENTKIKNGASYCIVQISAVDFPDQWPQLLTVIYDAISHQHSLNAMSLLNEIYDDVVSEEMFFEGGIGLATMEIVFKVLNTETSTLIAKIAALKLLKACLLQMSSHNEYDEASRKSFVSQCLATSLQILGQLLTLNFGNVDVISQLKFKSIIYENLVFIKNDFSRKHFSSELQKQFKIMAIQDLENVTHINANVETTESEPLLETVHDCSIYIVEFLTSVCTLQFSVEEMNKIITSLTILCQLSSETREIWTSDFNTFVSKETGLAASYNVRDQANEFFTSLPNPQLSLIFKVVSNDIEHSTCNYSTLESLLYLLQCILLNDDEITGENIDQSLQILIKTLENILVSQEIPELILARAILTIPRVLDKFIDALPDIKPLTSAFLAKSLNLALKSDKELIKSATLIAFTYYCYFAELDSVLGPEVCSETQEKVIRIINQVSSDAEEDTNGALMEVLSQVISYNPKEPHSRKEILQAEFHLVFTISSEDPANVQVVVQSQECLEKLLDNINMDNYKNYIELCLPSFINVLDSNNANNYRYSPLLSLVLEFITVFLKKKPNDGFLPDEINQYLFEPLAKVLAFSTEDETLQLATEAFSYLIFNTDTRAMEPRLMDIMKVLERLLSLEVSDSAAMNVGPLVVAIFTRFSKEIQPLIGRILEAVVVRLIKTQNISTEQNLLSVLCFLTCNDPKQTVDFLSSFQIDNTDALTLVMRKWIEAFEVIRGEKRIKENIVALSNLFFLNDKRLQKVVVNGNLIPYEGDLIITRSMAKKMPDRYVQVPLYTKIIKLFVSELSFQSKQPNPEQLITSDIKQEVVNANKDDDNDDWEDVDDVLDYDKLKEYIDDDVDEEADDDSDDITGLMDVKESVVQLLVRFFKEVASKDVSGFHCIYETLSDSERKVLSEALL

Variants of: B1
Conditions: with gsp1_yeast GSP1, P32835
In the case of K909R, the “effect of a mutation on the interaction” value is reported as “decreasing interaction”.
